One may read the stoichiometry N as a count of units in the complex or per binding partner.

Results on 2 molecules are retold here after paper PMC9440762, “Anti-Stokes fluorescence excitation reveals conformational mobility of the C-phycocyanin chromophores” (Structural Dynamics, 2022).

Data set [1] concerns the target T1, C-phycocyanin β subunit from Arthrospira platensis (Arthrospira platensis (Spirulina), UniProt P72508 1-172, phycocyanobilin covalently bound to the cysteines at positions 82 and 153).
T1 construct: C-phycocyanin β subunit, Arthrospira platensis (Spirulina); also called β C-PC chain
T1 sequence (looked up): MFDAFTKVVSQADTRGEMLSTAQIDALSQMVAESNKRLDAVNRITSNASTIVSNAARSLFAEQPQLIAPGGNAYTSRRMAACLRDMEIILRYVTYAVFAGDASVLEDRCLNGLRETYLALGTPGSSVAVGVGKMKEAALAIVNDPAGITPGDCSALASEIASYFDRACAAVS
Nature of the data set: SEC; preparative Superdex 200 26/600, 20 mM Tris-HCl pH 7.6, 150 mM NaCl; fractions of the main peak analysed by SDS-PAGE. Conditions: both partners purified.

Data set [2] deals with the molecule itself. Nature of the data set: SAXS; C-PC in solution at 150 mM NaCl; fits with trimer and hexamer models, MW estimate, ab initio shape by GASBOR; also at 4, 6 and 8 M urea (decrease in the oligomeric state, partial dissociation of trimers).

B1: C-phycocyanin α subunit from Arthrospira platensis (natural protein)
chain: not shown
modifications: phycocyanobilin covalently bound to the cysteine at position 84
notes: C-phycocyanin α subunit, Arthrospira platensis (Spirulina); also called α C-PC chain
Take B1: the binding result in data set [1] was “binds”.

B2: C-phycocyanin αβ monomer (heterodimer of the α and β subunits) from Arthrospira platensis (complex)
chain 1: not shown
chain 2: MFDAFTKVVSQADTRGEMLSTAQIDALSQMVAESNKRLDAVNRITSNASTIVSNAARSLFAEQPQLIAPGGNAYTSRRMAACLRDMEIILRYVTYAVFAGDASVLEDRCLNGLRETYLALGTPGSSVAVGVGKMKEAALAIVNDPAGITPGDCSALASEIASYFDRACAAVS
modifications: phycocyanobilin covalently bound to the cysteine at position 84 | phycocyanobilin covalently bound to the cysteines at positions 82 and 153
notes: C-phycocyanin α subunit, Arthrospira platensis (Spirulina); band of apparent MW 16 or 18 kDa on SDS-PAGE; C-phycocyanin β subunit, Arthrospira platensis (Spirulina); The unit that associates with itself into the (αβ)3 trimer; Linker polypeptides are absent from the preparation; also called C-PC; PC
In the case of B2, the “stoichiometry N” value in data set [2] was 3.
